36 variants from the RNAGym collection of RNA variant scans (doi:10.1021/acssynbio.7b00057) can be followed below.

B1: Pistol ribozyme (parent)
chain: GGGUCGUUGUUCCAUAAUCGCGUGGAUAUGGCACGCAAGUUUCUACCGGGCACCGUAAAUGUCCGACUGGAGCCGUUCGGGCGGCUAUAAACAGACCUCAGGCCCGAAGCGUGGCGGCACCUGCCGCCGGUGGUAAAAAAGAUCGGAAGAGCACACGUCU

Variants of B1 are the subject of this data set. The experiment in a line: aptazyme ON/OFF ratio, guanine; higher = stronger switching; co-transcriptional cleavage with and without guanine.
As to GGGUCGCAUUCGAAUAAUCGCGUGGAUAUGGCACGCAAGUUUCUACCGGGCACCGUAAAUGUCCGACUGGAGCCGUUCGGGCGGCUAUAAACAGACCUCAGGCCCGAAGCGUGGCGGCACCUGCCGCCGGUGGUAAAAAAGAUCGGAAGAGCACACGUCU, the “aptazyme ON/OFF ratio” value came to 1.17.
To GGGUCGGUAGUGUAUAAUCGCGUGGAUAUGGCACGCAAGUUUCUACCGGGCACCGUAAAUGUCCGACUGGAGCCGUUCGGGCGGCUAUAAACAGACCUCAGGCCCGAAGCGUGGCGGCACCUGCCGCCGGUGGUAAAAAAGAUCGGAAGAGCACACGUCU belongs 1.07; to GGGUCGCGUCCUCAUAAUCGCGUGGAUAUGGCACGCAAGUUUCUACCGGGCACCGUAAAUGUCCGACUGGAGCCGUUCGGGCGGCUAUAAACAGACCUCAGGCCCGAAGCGUGGCGGCACCUGCCGCCGGUGGUAAAAAAGAUCGGAAGAGCACACGUCU, 1.1.
The value for GGGUCGAUCGGUGAUAAUCGCGUGGAUAUGGCACGCAAGUUUCUACCGGGCACCGUAAAUGUCCGACUGGAGCCGUUCGGGCGGCUAUAAACAGACCUCAGGCCCGAAGCGUGGCGGCACCUGCCGCCGGUGGUAAAAAAGAUCGGAAGAGCACACGUCU was 1.12.
The value for GGGUCGACUAACGAUAAUCGCGUGGAUAUGGCACGCAAGUUUCUACCGGGCACCGUAAAUGUCCGACUGGAGCCGUUCGGGCGGCUAUAAACAGACCUCAGGCCCGAAGCGUGGCGGCACCUGCCGCCGGUGGUAAAAAAGAUCGGAAGAGCACACGUCU was 1.08; that for GGGUCGUCUAGGCAUAAUCGCGUGGAUAUGGCACGCAAGUUUCUACCGGGCACCGUAAAUGUCCGACUGGAGCCGUUCGGGCGGCUAUAAACAGACCUCAGGCCCGAAGCGUGGCGGCACCUGCCGCCGGUGGUAAAAAAGAUCGGAAGAGCACACGUCU was 1.23.
Consider GGGUCGUUCCCAGAUAAUCGCGUGGAUAUGGCACGCAAGUUUCUACCGGGCACCGUAAAUGUCCGACUGGAGCCGUUCGGGCGGCUAUAAACAGACCUCAGGCCCGAAGCGUGGCGGCACCUGCCGCCGGUGGUAAAAAAGAUCGGAAGAGCACACGUCU, for which the “aptazyme ON/OFF ratio” value turned out to be 1.01.
To GGGUCGACUUAAUAUAAUCGCGUGGAUAUGGCACGCAAGUUUCUACCGGGCACCGUAAAUGUCCGACUGGAGCCGUUCGGGCGGCUAUAAACAGACCUCAGGCCCGAAGCGUGGCGGCACCUGCCGCCGGUGGUAAAAAAGAUCGGAAGAGCACACGUCU belongs 1.33; to GGGUCGGCUCGAAAUAAUCGCGUGGAUAUGGCACGCAAGUUUCUACCGGGCACCGUAAAUGUCCGACUGGAGCCGUUCGGGCGGCUAUAAACAGACCUCAGGCCCGAAGCGUGGCGGCACCUGCCGCCGGUGGUAAAAAAGAUCGGAAGAGCACACGUCU, 1.18.
Regarding GGGUCGGACGAGAAUAAUCGCGUGGAUAUGGCACGCAAGUUUCUACCGGGCACCGUAAAUGUCCGACUGGAGCCGUUCGGGCGGCUAUAAACAGACCUCAGGCCCGAAGCGUGGCGGCACCUGCCGCCGGUGGUAAAAAAGAUCGGAAGAGCACACGUCU, the “aptazyme ON/OFF ratio” value came to 1.01.
To GGGUCGUGUAUAAAUAAUCGCGUGGAUAUGGCACGCAAGUUUCUACCGGGCACCGUAAAUGUCCGACUGGAGCCGUUCGGGCGGCUAUAAACAGACCUCAGGCCCGAAGCGUGGCGGCACCUGCCGCCGGUGGUAAAAAAGAUCGGAAGAGCACACGUCU belongs 1.21; to GGGUCGUAAGUAUAUAAUCGCGUGGAUAUGGCACGCAAGUUUCUACCGGGCACCGUAAAUGUCCGACUGGAGCCGUUCGGGCGGCUAUAAACAGACCUCAGGCCCGAAGCGUGGCGGCACCUGCCGCCGGUGGUAAAAAAGAUCGGAAGAGCACACGUCU, 1.36.
For the variant GGGUCGCAUGUCGAUAAUCGCGUGGAUAUGGCACGCAAGUUUCUACCGGGCACCGUAAAUGUCCGACUGGAGCCGUUCGGGCGGCUAUAAACAGACCUCAGGCCCGAAGCGUGGCGGCACCUGCCGCCGGUGGUAAAAAAGAUCGGAAGAGCACACGUCU, the “aptazyme ON/OFF ratio” value was found to be 1.08.
The value for GGGUCGACCCGGAAUAAUCGCGUGGAUAUGGCACGCAAGUUUCUACCGGGCACCGUAAAUGUCCGACUGGAGCCGUUCGGGCGGCUAUAAACAGACCUCAGGCCCGAAGCGUGGCGGCACCUGCCGCCGGUGGUAAAAAAGAUCGGAAGAGCACACGUCU was 1.12; that for GGGUCGUGGAAACAUAAUCGCGUGGAUAUGGCACGCAAGUUUCUACCGGGCACCGUAAAUGUCCGACUGGAGCCGUUCGGGCGGCUAUAAACAGACCUCAGGCCCGAAGCGUGGCGGCACCUGCCGCCGGUGGUAAAAAAGAUCGGAAGAGCACACGUCU was 1.12.
To GGGUCGAAACCUCAUAAUCGCGUGGAUAUGGCACGCAAGUUUCUACCGGGCACCGUAAAUGUCCGACUGGAGCCGUUCGGGCGGCUAUAAACAGACCUCAGGCCCGAAGCGUGGCGGCACCUGCCGCCGGUGGUAAAAAAGAUCGGAAGAGCACACGUCU belongs 1.04; to GGGUCGAAACCGAAUAAUCGCGUGGAUAUGGCACGCAAGUUUCUACCGGGCACCGUAAAUGUCCGACUGGAGCCGUUCGGGCGGCUAUAAACAGACCUCAGGCCCGAAGCGUGGCGGCACCUGCCGCCGGUGGUAAAAAAGAUCGGAAGAGCACACGUCU, 1.08.
To GGGUCGGAGUAGAAUAAUCGCGUGGAUAUGGCACGCAAGUUUCUACCGGGCACCGUAAAUGUCCGACUGGAGCCGUUCGGGCGGCUAUAAACAGACCUCAGGCCCGAAGCGUGGCGGCACCUGCCGCCGGUGGUAAAAAAGAUCGGAAGAGCACACGUCU belongs 1.08.
For the variant GGGUCGCUGAGCCAUAAUCGCGUGGAUAUGGCACGCAAGUUUCUACCGGGCACCGUAAAUGUCCGACUGGAGCCGUUCGGGCGGCUAUAAACAGACCUCAGGCCCGAAGCGUGGCGGCACCUGCCGCCGGUGGUAAAAAAGAUCGGAAGAGCACACGUCU, the “aptazyme ON/OFF ratio” value amounted to 1.46.
On to GGGUCGGGUCUCAAUAAUCGCGUGGAUAUGGCACGCAAGUUUCUACCGGGCACCGUAAAUGUCCGACUGGAGCCGUUCGGGCGGCUAUAAACAGACCUCAGGCCCGAAGCGUGGCGGCACCUGCCGCCGGUGGUAAAAAAGAUCGGAAGAGCACACGUCU, for which the “aptazyme ON/OFF ratio” value worked out at 1.43.
To GGGUCGGCGGGACAUAAUCGCGUGGAUAUGGCACGCAAGUUUCUACCGGGCACCGUAAAUGUCCGACUGGAGCCGUUCGGGCGGCUAUAAACAGACCUCAGGCCCGAAGCGUGGCGGCACCUGCCGCCGGUGGUAAAAAAGAUCGGAAGAGCACACGUCU belongs 1.18.
The value for GGGUCGAGCCAUUAUAAUCGCGUGGAUAUGGCACGCAAGUUUCUACCGGGCACCGUAAAUGUCCGACUGGAGCCGUUCGGGCGGCUAUAAACAGACCUCAGGCCCGAAGCGUGGCGGCACCUGCCGCCGGUGGUAAAAAAGAUCGGAAGAGCACACGUCU was 1.2; that for GGGUCGGCCCGACAUAAUCGCGUGGAUAUGGCACGCAAGUUUCUACCGGGCACCGUAAAUGUCCGACUGGAGCCGUUCGGGCGGCUAUAAACAGACCUCAGGCCCGAAGCGUGGCGGCACCUGCCGCCGGUGGUAAAAAAGAUCGGAAGAGCACACGUCU was 1.14.
As for GGGUCGACUACGCAUAAUCGCGUGGAUAUGGCACGCAAGUUUCUACCGGGCACCGUAAAUGUCCGACUGGAGCCGUUCGGGCGGCUAUAAACAGACCUCAGGCCCGAAGCGUGGCGGCACCUGCCGCCGGUGGUAAAAAAGAUCGGAAGAGCACACGUCU, the “aptazyme ON/OFF ratio” value turned out to be 1.27.
To GGGUCGCCUGGCGAUAAUCGCGUGGAUAUGGCACGCAAGUUUCUACCGGGCACCGUAAAUGUCCGACUGGAGCCGUUCGGGCGGCUAUAAACAGACCUCAGGCCCGAAGCGUGGCGGCACCUGCCGCCGGUGGUAAAAAAGAUCGGAAGAGCACACGUCU belongs 1.13; to GGGUCGCCCCACGAUAAUCGCGUGGAUAUGGCACGCAAGUUUCUACCGGGCACCGUAAAUGUCCGACUGGAGCCGUUCGGGCGGCUAUAAACAGACCUCAGGCCCGAAGCGUGGCGGCACCUGCCGCCGGUGGUAAAAAAGAUCGGAAGAGCACACGUCU, 1.13.
GGGUCGGCUGAGAAUAAUCGCGUGGAUAUGGCACGCAAGUUUCUACCGGGCACCGUAAAUGUCCGACUGGAGCCGUUCGGGCGGCUAUAAACAGACCUCAGGCCCGAAGCGUGGCGGCACCUGCCGCCGGUGGUAAAAAAGAUCGGAAGAGCACACGUCU: the “aptazyme ON/OFF ratio” value was 1.16.
Consider GGGUCGUUCGAAAAUAAUCGCGUGGAUAUGGCACGCAAGUUUCUACCGGGCACCGUAAAUGUCCGACUGGAGCCGUUCGGGCGGCUAUAAACAGACCUCAGGCCCGAAGCGUGGCGGCACCUGCCGCCGGUGGUAAAAAAGAUCGGAAGAGCACACGUCU, for which the “aptazyme ON/OFF ratio” value was determined as 1.23.
To GGGUCGAUCCCUGAUAAUCGCGUGGAUAUGGCACGCAAGUUUCUACCGGGCACCGUAAAUGUCCGACUGGAGCCGUUCGGGCGGCUAUAAACAGACCUCAGGCCCGAAGCGUGGCGGCACCUGCCGCCGGUGGUAAAAAAGAUCGGAAGAGCACACGUCU belongs 1.04; to GGGUCGUGGAAGUAUAAUCGCGUGGAUAUGGCACGCAAGUUUCUACCGGGCACCGUAAAUGUCCGACUGGAGCCGUUCGGGCGGCUAUAAACAGACCUCAGGCCCGAAGCGUGGCGGCACCUGCCGCCGGUGGUAAAAAAGAUCGGAAGAGCACACGUCU, 1.07.
As for GGGUCGCCUUUAGAUAAUCGCGUGGAUAUGGCACGCAAGUUUCUACCGGGCACCGUAAAUGUCCGACUGGAGCCGUUCGGGCGGCUAUAAACAGACCUCAGGCCCGAAGCGUGGCGGCACCUGCCGCCGGUGGUAAAAAAGAUCGGAAGAGCACACGUCU, the “aptazyme ON/OFF ratio” value came to 1.1.
The value for GGGUCGUCAGAAUAUAAUCGCGUGGAUAUGGCACGCAAGUUUCUACCGGGCACCGUAAAUGUCCGACUGGAGCCGUUCGGGCGGCUAUAAACAGACCUCAGGCCCGAAGCGUGGCGGCACCUGCCGCCGGUGGUAAAAAAGAUCGGAAGAGCACACGUCU was 1.15; that for GGGUCGAUAUUGUAUAAUCGCGUGGAUAUGGCACGCAAGUUUCUACCGGGCACCGUAAAUGUCCGACUGGAGCCGUUCGGGCGGCUAUAAACAGACCUCAGGCCCGAAGCGUGGCGGCACCUGCCGCCGGUGGUAAAAAAGAUCGGAAGAGCACACGUCU was 1.17; that for GGGUCGUUAAGCCAUAAUCGCGUGGAUAUGGCACGCAAGUUUCUACCGGGCACCGUAAAUGUCCGACUGGAGCCGUUCGGGCGGCUAUAAACAGACCUCAGGCCCGAAGCGUGGCGGCACCUGCCGCCGGUGGUAAAAAAGAUCGGAAGAGCACACGUCU was 2.38.
For the variant GGGUCGCUCCCAAAUAAUCGCGUGGAUAUGGCACGCAAGUUUCUACCGGGCACCGUAAAUGUCCGACUGGAGCCGUUCGGGCGGCUAUAAACAGACCUCAGGCCCGAAGCGUGGCGGCACCUGCCGCCGGUGGUAAAAAAGAUCGGAAGAGCACACGUCU, the “aptazyme ON/OFF ratio” value was determined as 1.04.
Take GGGUCGUUGUUUAAUAAUCGCGUGGAUAUGGCACGCAAGUUUCUACCGGGCACCGUAAAUGUCCGACUGGAGCCGUUCGGGCGGCUAUAAACAGACCUCAGGCCCGAAGCGUGGCGGCACCUGCCGCCGGUGGUAAAAAAGAUCGGAAGAGCACACGUCU: the “aptazyme ON/OFF ratio” value is 1.28.
